This note sets out measurements from the supplement of paper PMC9112550, “Optimization of the antimicrobial peptide Bac7 by deep mutational scanning” (BMC Biology, 2022).

The test system of this data set is Escherichia coli TOP10. Kind of data set: shrunken log2 fold change of peptide-encoding DNA abundance (4.5 h post-induction vs induction); higher = less antimicrobial activity (less host growth inhibition). Conditions: time post-induction: 4.5 h; library: site-saturation at positions 5, 18, 19, 20.
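Further: peptides expressed intracellularly from a pBAD plasmid library in pooled LB shake-flask culture, induced with 0.3% L-arabinose, DNA abundance read by NGS, three biological replicates, DESeq2 with apeglm shrinkage.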

As for RRIRSRPPRLPRPRPRPWICPRP, the “shrunken log2 fold change” value is -0.15.

Turning to RRIRKRPPRLPRPRPRPESLPRP, the “shrunken log2 fold change” value is -0.024.

With RRIRKRPPRLPRPRPRPGQAPRP, the “shrunken log2 fold change” value stood at 0.383.

With RRIRCRPPRLPRPRPRPVPYPRP, the “shrunken log2 fold change” value was -0.533.

Turning to RRIRWRPPRLPRPRPRPPSLPRP, the “shrunken log2 fold change” value was 0.115.

As for RRIRWRPPRLPRPRPRPISAPRP, the “shrunken log2 fold change” value was -0.0163.

On to RRIRCRPPRLPRPRPRPDMRPRP, for which the “shrunken log2 fold change” value is 0.018.

As for RRIRIRPPRLPRPRPRPFGIPRP, the “shrunken log2 fold change” value is -0.972.

On to RRIRYRPPRLPRPRPRPTVHPRP, for which the “shrunken log2 fold change” value is -1.3.

Turning to RRIRLRPPRLPRPRPRPYSRPRP, the “shrunken log2 fold change” value worked out at 0.0264.

Consider RRIRCRPPRLPRPRPRPANDPRP, for which the “shrunken log2 fold change” value is -0.799.

Consider RRIRPRPPRLPRPRPRPSCEPRP, for which the “shrunken log2 fold change” value is -0.386.

Consider RRIRQRPPRLPRPRPRPHVIPRP, for which the “shrunken log2 fold change” value is -0.186.

As to RRIRFRPPRLPRPRPRPDFFPRP, the “shrunken log2 fold change” value is -0.027.

On to RRIRLRPPRLPRPRPRPLFLPRP, for which the “shrunken log2 fold change” value is -0.551.

As for RRIRSRPPRLPRPRPRPARVPRP, the “shrunken log2 fold change” value worked out at 0.47.

Regarding RRIRSRPPRLPRPRPRPYQYPRP, the “shrunken log2 fold change” value was -1.11.

In the case of RRIRRRPPRLPRPRPRPAYIPRP, the “shrunken log2 fold change” value was -0.201.

Take RRIRQRPPRLPRPRPRPRMPPRP: the “shrunken log2 fold change” value amounted to 0.216.

For RRIRNRPPRLPRPRPRPACDPRP, the “shrunken log2 fold change” value is -0.00482.

On to RRIRLRPPRLPRPRPRPDGGPRP, for which the “shrunken log2 fold change” value is -0.000524.

In the case of RRIRKRPPRLPRPRPRPIMSPRP, the “shrunken log2 fold change” value was -0.00757.

As for RRIRNRPPRLPRPRPRPFIVPRP, the “shrunken log2 fold change” value was -0.279.

For the sequence RRIRFRPPRLPRPRPRPRGQPRP, the “shrunken log2 fold change” value is 0.415.

As to RRIRDRPPRLPRPRPRPLQVPRP, the “shrunken log2 fold change” value is 0.0133.

As for RRIRDRPPRLPRPRPRPLELPRP, the “shrunken log2 fold change” value is -0.014.

Consider RRIRIRPPRLPRPRPRPWAQPRP, for which the “shrunken log2 fold change” value was 0.0697.

In the case of RRIRERPPRLPRPRPRPNTSPRP, the “shrunken log2 fold change” value came out at 0.37.

With RRIRMRPPRLPRPRPRPCLKPRP, the “shrunken log2 fold change” value worked out at 0.12.

For RRIRKRPPRLPRPRPRPYVMPRP, the “shrunken log2 fold change” value was -0.223.

Regarding RRIRRRPPRLPRPRPRPSDVPRP, the “shrunken log2 fold change” value was -0.374.

As for RRIRERPPRLPRPRPRPTRGPRP, the “shrunken log2 fold change” value came out at 0.0807.

For the sequence RRIRERPPRLPRPRPRPTDNPRP, the “shrunken log2 fold change” value is -0.841.

For the sequence RRIRMRPPRLPRPRPRPEHGPRP, the “shrunken log2 fold change” value is 0.406.

For the sequence RRIRCRPPRLPRPRPRPLCYPRP, the “shrunken log2 fold change” value is -0.439.

Consider RRIRERPPRLPRPRPRPIYQPRP, for which the “shrunken log2 fold change” value was -0.394.

Consider RRIRTRPPRLPRPRPRPPNTPRP, for which the “shrunken log2 fold change” value amounted to 0.443.

As for RRIRLRPPRLPRPRPRPWHMPRP, the “shrunken log2 fold change” value came to 0.041.

Consider RRIRARPPRLPRPRPRPFSGPRP, for which the “shrunken log2 fold change” value is -0.00374.

Turning to RRIRLRPPRLPRPRPRPFKFPRP, the “shrunken log2 fold change” value is -0.202.

As to RRIRFRPPRLPRPRPRPWCSPRP, the “shrunken log2 fold change” value is -0.714.

For RRIRHRPPRLPRPRPRPPCDPRP, the “shrunken log2 fold change” value was -0.22.

Consider RRIRLRPPRLPRPRPRPTLDPRP, for which the “shrunken log2 fold change” value was 0.0159.

In the case of RRIRVRPPRLPRPRPRPLQMPRP, the “shrunken log2 fold change” value is 0.312.

With RRIRIRPPRLPRPRPRPEFQPRP, the “shrunken log2 fold change” value was -0.129.

With RRIRFRPPRLPRPRPRPKHTPRP, the “shrunken log2 fold change” value was -0.0698.

RRIRARPPRLPRPRPRPALKPRP: the “shrunken log2 fold change” value came out at 0.825.

Consider RRIRMRPPRLPRPRPRPHSHPRP, for which the “shrunken log2 fold change” value was 0.0536.

With RRIRPRPPRLPRPRPRPEMNPRP, the “shrunken log2 fold change” value is -0.381.

Take RRIRVRPPRLPRPRPRPKDFPRP: the “shrunken log2 fold change” value turned out to be 0.123.

As for RRIRHRPPRLPRPRPRPGILPRP, the “shrunken log2 fold change” value was -0.111.

In the case of RRIRCRPPRLPRPRPRPPYPPRP, the “shrunken log2 fold change” value was -0.193.

Regarding RRIRYRPPRLPRPRPRPVILPRP, the “shrunken log2 fold change” value is -0.0444.

In the case of RRIRIRPPRLPRPRPRPQYGPRP, the “shrunken log2 fold change” value was 0.0914.

Take RRIRIRPPRLPRPRPRPNIHPRP: the “shrunken log2 fold change” value was -0.936.

With RRIRTRPPRLPRPRPRPRWWPRP, the “shrunken log2 fold change” value was 0.533.

As to RRIRYRPPRLPRPRPRPKMCPRP, the “shrunken log2 fold change” value was determined as 0.00281.

Regarding RRIRLRPPRLPRPRPRPIYIPRP, the “shrunken log2 fold change” value was -1.1.

Turning to RRIRRRPPRLPRPRPRPKKVPRP, the “shrunken log2 fold change” value turned out to be 0.242.

Turning to RRIRGRPPRLPRPRPRPHYLPRP, the “shrunken log2 fold change” value was -0.295.

Turning to RRIRMRPPRLPRPRPRPQYPPRP, the “shrunken log2 fold change” value is -0.0385.

Take RRIRARPPRLPRPRPRPSEYPRP: the “shrunken log2 fold change” value is -0.264.

Regarding RRIRDRPPRLPRPRPRPHTCPRP, the “shrunken log2 fold change” value is -0.0522.

In the case of RRIRYRPPRLPRPRPRPGVVPRP, the “shrunken log2 fold change” value was -0.354.

Consider RRIRGRPPRLPRPRPRPFHSPRP, for which the “shrunken log2 fold change” value was -0.155.

For RRIRGRPPRLPRPRPRPSRCPRP, the “shrunken log2 fold change” value was -0.0851.

Regarding RRIRCRPPRLPRPRPRPLHVPRP, the “shrunken log2 fold change” value was -0.178.

RRIRTRPPRLPRPRPRPPGRPRP: the “shrunken log2 fold change” value was found to be 0.586.

For the sequence RRIRRRPPRLPRPRPRPYFKPRP, the “shrunken log2 fold change” value is -0.572.

As for RRIRLRPPRLPRPRPRPFFLPRP, the “shrunken log2 fold change” value is -0.282.

Turning to RRIRQRPPRLPRPRPRPWMWPRP, the “shrunken log2 fold change” value is -0.457.

As for RRIRGRPPRLPRPRPRPYSSPRP, the “shrunken log2 fold change” value was -0.223.

Take RRIRRRPPRLPRPRPRPHYLPRP: the “shrunken log2 fold change” value is -0.156.

Consider RRIRARPPRLPRPRPRPDKAPRP, for which the “shrunken log2 fold change” value turned out to be 0.121.

Regarding RRIRSRPPRLPRPRPRPPREPRP, the “shrunken log2 fold change” value was found to be 0.622.

Take RRIRCRPPRLPRPRPRPTKMPRP: the “shrunken log2 fold change” value is -0.301.

Take RRIRFRPPRLPRPRPRPQKCPRP: the “shrunken log2 fold change” value was -0.332.

RRIRGRPPRLPRPRPRPFYNPRP: the “shrunken log2 fold change” value worked out at 0.0314.

Regarding RRIRHRPPRLPRPRPRPLFKPRP, the “shrunken log2 fold change” value is -0.183.

Regarding RRIRFRPPRLPRPRPRPACKPRP, the “shrunken log2 fold change” value was -0.0419.

Turning to RRIRVRPPRLPRPRPRPYRRPRP, the “shrunken log2 fold change” value was -0.0654.

On to RRIRDRPPRLPRPRPRPGVHPRP, for which the “shrunken log2 fold change” value is -0.0373.

For the sequence RRIRRRPPRLPRPRPRPQWYPRP, the “shrunken log2 fold change” value is -0.258.

For RRIRCRPPRLPRPRPRPDNLPRP, the “shrunken log2 fold change” value was -0.595.

With RRIRSRPPRLPRPRPRPGHNPRP, the “shrunken log2 fold change” value was -0.433.

In the case of RRIRGRPPRLPRPRPRPCWWPRP, the “shrunken log2 fold change” value is 0.554.

For the sequence RRIRQRPPRLPRPRPRPTLNPRP, the “shrunken log2 fold change” value was 0.0729.

As for RRIRERPPRLPRPRPRPYIWPRP, the “shrunken log2 fold change” value turned out to be 0.0553.

Regarding RRIRVRPPRLPRPRPRPTWEPRP, the “shrunken log2 fold change” value is 0.00966.

Take RRIRHRPPRLPRPRPRPIGWPRP: the “shrunken log2 fold change” value was found to be 0.0927.

Take RRIRFRPPRLPRPRPRPDAYPRP: the “shrunken log2 fold change” value is -0.147.

Take RRIRDRPPRLPRPRPRPKFNPRP: the “shrunken log2 fold change” value was -0.236.

Turning to RRIRHRPPRLPRPRPRPKLPPRP, the “shrunken log2 fold change” value was determined as 0.0191.

As to RRIRERPPRLPRPRPRPKCCPRP, the “shrunken log2 fold change” value is -0.191.

Take RRIRKRPPRLPRPRPRPAHFPRP: the “shrunken log2 fold change” value stood at 0.232.

Turning to RRIRARPPRLPRPRPRPRKEPRP, the “shrunken log2 fold change” value is -0.0116.

RRIRSRPPRLPRPRPRPKPAPRP: the “shrunken log2 fold change” value was determined as 0.555.

For the sequence RRIRQRPPRLPRPRPRPRRAPRP, the “shrunken log2 fold change” value is 0.79.

For RRIRKRPPRLPRPRPRPRYPPRP, the “shrunken log2 fold change” value was 0.122.

As to RRIRGRPPRLPRPRPRPKSKPRP, the “shrunken log2 fold change” value amounted to 0.611.

For the sequence RRIRHRPPRLPRPRPRPKYFPRP, the “shrunken log2 fold change” value is -0.0202.

As for RRIRFRPPRLPRPRPRPRHNPRP, the “shrunken log2 fold change” value was -0.275.

In the case of RRIRCRPPRLPRPRPRPWYWPRP, the “shrunken log2 fold change” value is -0.286.

In the case of RRIRFRPPRLPRPRPRPCWVPRP, the “shrunken log2 fold change” value was -0.331.

Regarding RRIRLRPPRLPRPRPRPGSWPRP, the “shrunken log2 fold change” value was determined as 0.18.

With RRIRLRPPRLPRPRPRPADLPRP, the “shrunken log2 fold change” value was 0.0231.

As for RRIRKRPPRLPRPRPRPMMSPRP, the “shrunken log2 fold change” value is -0.00973.

Turning to RRIRHRPPRLPRPRPRPYMLPRP, the “shrunken log2 fold change” value is -1.66.

On to RRIRYRPPRLPRPRPRPGCKPRP, for which the “shrunken log2 fold change” value was -0.0843.

Regarding RRIRQRPPRLPRPRPRPTFWPRP, the “shrunken log2 fold change” value came to 2.04.

With RRIRIRPPRLPRPRPRPQFLPRP, the “shrunken log2 fold change” value is -0.186.

Turning to RRIRQRPPRLPRPRPRPNKVPRP, the “shrunken log2 fold change” value is -0.468.

As to RRIRDRPPRLPRPRPRPKKKPRP, the “shrunken log2 fold change” value is -0.0718.

Turning to RRIRLRPPRLPRPRPRPYGHPRP, the “shrunken log2 fold change” value was 2.49.

As to RRIRRRPPRLPRPRPRPVCSPRP, the “shrunken log2 fold change” value came out at 0.225.

RRIRQRPPRLPRPRPRPSPFPRP: the “shrunken log2 fold change” value is 0.0122.

In the case of RRIRRRPPRLPRPRPRPKHMPRP, the “shrunken log2 fold change” value was found to be 0.932.

Take RRIRDRPPRLPRPRPRPLFVPRP: the “shrunken log2 fold change” value is -0.168.

With RRIRCRPPRLPRPRPRPHFKPRP, the “shrunken log2 fold change” value was -0.368.

On to RRIRVRPPRLPRPRPRPKDEPRP, for which the “shrunken log2 fold change” value was -0.205.

For RRIRNRPPRLPRPRPRPFGVPRP, the “shrunken log2 fold change” value was 0.125.

As for RRIRNRPPRLPRPRPRPHVYPRP, the “shrunken log2 fold change” value was -0.229.

RRIRTRPPRLPRPRPRPFIAPRP: the “shrunken log2 fold change” value was -0.589.

On to RRIRARPPRLPRPRPRPDDRPRP, for which the “shrunken log2 fold change” value is -0.149.

For RRIRSRPPRLPRPRPRPWSTPRP, the “shrunken log2 fold change” value is -0.696.
